The source of these data is US20180244779A1 (KADMON, published 2018).

In one experiment the target is T1, hPD-1-Fc (human, UniProt Q15116 25-167, limits assumed).
T1 construct: It was immobilized on the ELISA plate; also called soluble human PD-1-Fc; not shown: Fc part
In words: dose-response ELISA, immobilized hPD-1-Fc. The procedure:
(§1) The binding activity of the five antibodies was examined using dose-response ELISA. The serially diluted antibodies were added to immobilized hPD-1-Fc and detected by HRP conjugated anti-hIgG Fab specific antibody. The OD450 reading was plotted vs. log antibody concentration using GraphPad Prism6. EC50 was calculated by using “dose-response” (stimulation) variable slope (four parameters)” program. The antibodies were also added to immobilized mPD-1-Fc and other Fc-fusions to determine specificity for hPD-1-Fc and to immobilized anti-human IgG fc specific antibody (anti-hFc Ab) to check the accuracy of the concentration measurement.

The next experiment deals with T2, mPD-1-Fc (murine, UniProt Q02242 25-167, limits assumed).
T2 construct: also called murine PD-1; not shown: Fc part
T2 sequence (looked up): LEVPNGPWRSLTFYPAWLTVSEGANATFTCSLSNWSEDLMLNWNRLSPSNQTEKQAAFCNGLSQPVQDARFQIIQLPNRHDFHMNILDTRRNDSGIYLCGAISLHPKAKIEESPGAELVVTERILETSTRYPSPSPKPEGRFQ
In words: dose-response ELISA, immobilized mPD-1-Fc. The procedure: as §1
(In general: ELISA stands for enzyme-linked immunosorbent assay.)

T1 sequence (Q15116 25-167 limits assumed): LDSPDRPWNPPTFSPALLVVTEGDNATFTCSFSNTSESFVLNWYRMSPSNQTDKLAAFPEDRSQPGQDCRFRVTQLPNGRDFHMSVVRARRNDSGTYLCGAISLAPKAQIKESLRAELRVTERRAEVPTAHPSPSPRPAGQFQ

B1: R3D6 (antibody, V domains shown)
VH: EVQLLESGGGLVQPGGSLRLSCAASGFTFSDYNMAWVRQAPGKGLEWVSSIGPSGGNTHYADSVKGRFTISRDNSKNTLYLQMNSLRAEDMAVYYCARERVEYYYYGMDVWGKGTTVTVSS
VL: QSALTQAPSVSVAPGQTARITCGGDNIESLSVHWYQQKPGQAPVLVVYDDADRPSGTPERFSGSNSGNTATLTINRAEAGDEADYYCQVWDYSSDVVVFGGGTTLTVLG
As for B1, the binding result with hPD-1-Fc is reported as “binds”.

B2: R4B3 (antibody, V domains shown)
VH: EVQLLESGGGLVQPGGSLRLSCAASGFTFSYYWMSWVRQAPGKGLEWVSYISPSGGMTKYADSVKGRFTISRDNSKNTLYLQMNSLRAEDTAVYYCASASYDYVWGIYHYDVFDIWGQGTMVTVSS
VL: DIQMTQSPSSVSASVGDRVTITCRASQGISSWLAWYQQKPGKAPKLLIYAASSLQSGVPSRFSGSGSGTDFTLTISSLQPEDFATYYCQQANSFPLTFGGGTKVEIKR
Regarding B2, the binding result with hPD-1-Fc and in the experiment with mPD-1-Fc was “binds” in each case.

B3: R3A1 (antibody, V domains shown)
VH: EVQLLESGGGLVQPGGSLRLSCAASGFTFSRYHMMWVRQAPGKGLEWVSSIYPSGGYTYYADSVKGRFTISRDNSKNTLYLQMNSLRAEDTAVYYCAREYFSGPDYWGQGTLVTVSS
VL: DIQMTQSPSTLSASVGDRVTITCRASQKISRWLAWYQQTPGKAPKLLIYRASDLESGVPSRFSGSGSGTEFTLTISSLQPDDFATYYCQQYNTYPYTFGQGTKLEIKR
On to B3, for which the binding result with hPD-1-Fc was “binds”.

B4: R3A2 (antibody, V domains shown)
VH: EVQLLESGGGLVQPGGSLRLSCAASGFTFSWYSMLWVRQAPGKGLEWVSRIYPSGGFTYYADSVKGRFTISRDNSKNTLYLQMNSLRAEDTAVYYCARVIDIVGATGRLQHGMDVWGQGTTVTVSS
VL: QYELTQPPSVSVAPGQTAKITCGGNNIGSKSVNWYQQKTGQAPVLVVHDDSDRPSGIPERLSGSNSGNTATLTISRAEAGDEADYYCQVWDSVSDHYVFGTGTKVTVLG
Consider B4, for which the binding result in the experiment with hPD-1-Fc is “binds”.
